We go through one sequence from PMC2925389, “Pre-Steady-State Kinetic Analysis of Truncated and Full-Length Saccharomyces cerevisiae DNA Polymerase Eta” (Journal of Nucleic Acids, 2010).

Series [1] has as its target T1, yPolη truncated (catalytic core) (Saccharomyces cerevisiae) (UniProt Q04049).
T1 sequence: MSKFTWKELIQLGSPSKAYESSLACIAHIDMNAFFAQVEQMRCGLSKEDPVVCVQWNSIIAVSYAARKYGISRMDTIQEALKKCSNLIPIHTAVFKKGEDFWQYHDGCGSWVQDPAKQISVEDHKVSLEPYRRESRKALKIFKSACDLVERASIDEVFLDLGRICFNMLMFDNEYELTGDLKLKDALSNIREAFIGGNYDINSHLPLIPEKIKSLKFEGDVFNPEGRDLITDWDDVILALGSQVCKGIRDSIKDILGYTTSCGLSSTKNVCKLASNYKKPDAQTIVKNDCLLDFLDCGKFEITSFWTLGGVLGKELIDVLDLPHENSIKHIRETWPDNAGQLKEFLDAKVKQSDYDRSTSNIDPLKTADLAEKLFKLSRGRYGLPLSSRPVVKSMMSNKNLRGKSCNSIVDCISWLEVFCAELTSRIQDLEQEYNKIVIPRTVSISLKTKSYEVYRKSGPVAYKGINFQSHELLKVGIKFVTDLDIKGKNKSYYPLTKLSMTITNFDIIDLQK
Description: fluorescence titration (2-aminopurine). Particulars: 2-aminopurine at position 19 of the 41-mer template (X, written as A); 23°C, buffer A (composition not in material; without BSA for fluorescence); EMSA 10 nM DNA, 10-450 nM protein, 20 min, 4.5% native gel, 40 mM Tris in running ….

Series [2] deals with T2, yPolη full-length (Saccharomyces cerevisiae) (UniProt Q04049).
T2 sequence: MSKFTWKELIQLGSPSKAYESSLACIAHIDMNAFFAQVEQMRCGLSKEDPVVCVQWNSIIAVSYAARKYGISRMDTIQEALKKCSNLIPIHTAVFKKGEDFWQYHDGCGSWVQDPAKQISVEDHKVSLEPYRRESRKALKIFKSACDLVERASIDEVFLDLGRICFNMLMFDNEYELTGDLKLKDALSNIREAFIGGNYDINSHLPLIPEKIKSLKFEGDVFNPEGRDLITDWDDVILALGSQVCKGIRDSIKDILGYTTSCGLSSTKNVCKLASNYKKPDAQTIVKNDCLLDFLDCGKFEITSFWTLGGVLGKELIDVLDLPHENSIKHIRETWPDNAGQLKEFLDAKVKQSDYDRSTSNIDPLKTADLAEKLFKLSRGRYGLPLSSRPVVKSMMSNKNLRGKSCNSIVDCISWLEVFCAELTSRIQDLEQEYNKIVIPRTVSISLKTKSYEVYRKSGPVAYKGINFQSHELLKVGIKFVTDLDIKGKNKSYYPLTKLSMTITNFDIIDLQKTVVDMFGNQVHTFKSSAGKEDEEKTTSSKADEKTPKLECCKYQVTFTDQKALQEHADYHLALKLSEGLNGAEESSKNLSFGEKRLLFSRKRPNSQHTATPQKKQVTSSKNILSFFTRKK
Description: fluorescence titration (2-aminopurine). The note with it: 2-aminopurine at position 19 of the 41-mer template (X, written as A); 23°C, buffer A (composition not in material; without BSA for fluorescence); EMSA 10 nM DNA, 10-450 nM protein, 20 min, 4.5% native gel, 40 mM Tris in running ….

Regarding “CGCAGCCGTCCAACCAACTCA / GGACGGCATTGGATCGACACTGAGTTGGTTGGACGGCTGCG [F-8 21/41-mer]”, the figures for the Kd in series [1] and in series [2] were 13 nM and 7 nM, respectively.
